Our source for the Kd values is PMC12469269, “Investigating SMR Peptide Interactions with Breast Cancer-Associated Proteins” (International Journal of Molecular Sciences, 2025).

Common to all, as to experiment: SPR
Conditions in all cases: both partners purified

Test [1] concerns the target T1, Recombinant Human GRP75/HSPA9B/Mortalin His Protein (human, UniProt P38646 47-679).
T1 construct: source: bought: Novus Biologicals, LLC/R&D Systems

Test [2] has as its target T2, Recombinant Human Vimentin Protein, CF (human, UniProt P08670 1-466).
T2 construct: source: bought: Novus Biologicals, LLC/R&D Systems

For test [3], the target named is T1, Recombinant Human GRP75/HSPA9B/Mortalin …. This is another data set of the same source.
The target in test [4] is T2, Recombinant Human Vimentin Protein, CF. This is another data set of the same source.

T2 sequence (P08670 whole entry): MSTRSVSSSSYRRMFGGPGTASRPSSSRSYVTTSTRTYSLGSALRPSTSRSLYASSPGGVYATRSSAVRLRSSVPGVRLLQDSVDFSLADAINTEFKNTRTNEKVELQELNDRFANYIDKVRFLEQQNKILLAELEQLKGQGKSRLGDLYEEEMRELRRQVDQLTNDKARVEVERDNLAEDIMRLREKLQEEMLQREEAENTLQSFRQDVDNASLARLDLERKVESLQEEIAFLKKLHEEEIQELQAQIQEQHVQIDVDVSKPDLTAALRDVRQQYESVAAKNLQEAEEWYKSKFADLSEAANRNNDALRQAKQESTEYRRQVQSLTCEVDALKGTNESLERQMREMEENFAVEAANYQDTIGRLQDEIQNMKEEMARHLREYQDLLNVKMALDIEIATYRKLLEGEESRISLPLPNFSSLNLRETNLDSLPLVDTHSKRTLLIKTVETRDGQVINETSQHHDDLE
T1 sequence (P38646 47-679): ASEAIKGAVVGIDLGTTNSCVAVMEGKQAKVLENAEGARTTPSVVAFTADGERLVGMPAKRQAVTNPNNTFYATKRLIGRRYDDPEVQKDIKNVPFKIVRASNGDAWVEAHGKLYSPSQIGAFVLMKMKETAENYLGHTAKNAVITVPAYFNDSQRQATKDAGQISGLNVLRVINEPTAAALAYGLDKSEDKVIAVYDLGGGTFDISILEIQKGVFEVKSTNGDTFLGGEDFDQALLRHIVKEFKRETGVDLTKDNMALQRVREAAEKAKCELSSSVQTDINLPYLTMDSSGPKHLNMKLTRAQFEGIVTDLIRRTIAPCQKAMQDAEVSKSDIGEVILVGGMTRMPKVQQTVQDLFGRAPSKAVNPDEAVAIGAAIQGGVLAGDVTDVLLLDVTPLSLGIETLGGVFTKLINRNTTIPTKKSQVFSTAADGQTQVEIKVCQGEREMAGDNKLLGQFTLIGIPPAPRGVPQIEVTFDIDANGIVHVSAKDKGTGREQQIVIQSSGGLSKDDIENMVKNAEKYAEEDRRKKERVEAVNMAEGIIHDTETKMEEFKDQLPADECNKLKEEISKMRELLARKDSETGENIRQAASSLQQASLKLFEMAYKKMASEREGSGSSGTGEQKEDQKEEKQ

B1: HIV-1 Nef protein (natural protein)
chain: MGGKWSKSSVVGWPTVRERMRRAEPAADGVGAASRDLEKHGAITSSNTAATNAACAWLEAQEEEEVGFPVTPQVPLRPMTYKAAVDLSHFLKEKGGLEGLIHSQRRQDILDLWIYHTQGYFPDWQNYTPGPGVRYPLTFGWCYKLVPVEPDKVEEANKGENTSLLHPVSLHGMDDPEREVLEWRFDSRLAFHHVARELHPEYFKNC
notes: also called full Nef protein
On to B1, for which the Kd (commonly the constant that tells how readily two partners part at equilibrium) came to 3.16 nM in test [1], 0.75 nM in test [2], 2.1 nM in test [3] and 0.2 nM in test [4].
